# Source: publication doi:10.1101/2023.01.30.526200, “The virus-encoded ion channel “viroporin” activity of the agnoprotein is required for BK Polyomavirus release from infected kidney cells” (bioRxiv, 2023)
# Values joined by “and” are separate entries in the source; they are usually repeats but may differ in a detail not shown here. Identical values can stand only once.
# Target: the molecule itself
# Assay: SDS-PAGE (SDS-resistant oligomers); increasing concentrations of purified His-BKPyV agnoprotein on SDS PAGE, probed with anti-agnoprotein or anti-His antibody; oligomerisation concentration dependent
protein,measurement,value
"recombinant 10xHis BKPyV agnoprotein (natural protein, agnoprotein of BK polyomavirus, DNA codon optimised for E. coli, amplified with primers from the ATG to the stop codon and cloned into pET19b (KpnI/BamHI); also called 10xHis BK agnoprotein; recombinant agnoprotein; source: E. coli DE3 gold, purified (NiNTA, HiTrap SP ion exchange, C4 solid phase extraction; dissolved in DMSO); not shown: His10, N-terminal, kept) MVLRQLSRQASVKVGKTWTGTKKRAQRIFIFILELLLEFCRGEDSVDGKNKSTTALPAVKDSVKDS",stoichiometry N,2 and 4 and 5
